We go through one protein from article PMC7260205, “Steric occlusion regulates proximal interactions of acyl carrier protein domain in fungal fatty acid synthase” (Communications Biology, 2020).

The data set deals with the molecule itself. Nature of the data set: cryo-EM structure; FAS1-His6 and FAS2 co-expressed and purified as one complex; 1-2 mg/ml in TBS (50 mM Tris pH 7.4, 150 mM NaCl) on holey gold grids; WT apo or with acetyl-CoA, malonyl-CoA and NADPH; mutants with substrates; D3 symmetrised maps; for H1564A and H740A also symmetry expansion, signal subtraction and focused classification.

B1: S. cerevisiae fatty acid synthase FAS2 polypeptide (α-chain), wild type (enzyme)
chain: MKPEVEQELAHILLTELLAYQFASPVRWIETQDVFLKDFNTERVVEIGPSPTLAGMAQRTLKNKYESYDAALSLHREILCYSKDAKEIYYTPDPSELAAKEEPAKEEAPAPTPAASAPAPAAAAPAPVAAAAPAAAAAEIADEPVKASLLLHVLVAHKLKKSLDSIPMSKTIKDLVGGKSTVQNEILGDLGKEFGTTPEKPEETPLEELAETFQDTFSGALGKQSSSLLSRLISSKMPGGFTITVARKYLQTRWGLPSGRQDGVLLVALSNEPAARLGSEADAKAFLDSMAQKYASIVGVDLSSAASASGAAGAGAAAGAAMIDAGALEEITKDHKVLARQQLQVLARYLKMDLDNGERKFLKEKDTVAELQAQLDYLNAELGEFFVNGVATSFSRKKARTFDSSWNWAKQSLLSLYFEIIHGVLKNVDREVVSEAINIMNRSNDALIKFMEYHISNTDETKGENYQLVKTLGEQLIENCKQVLDVDPVYKDVAKPTGPKTAIDKNGNITYSEEPREKVRKLSQYVQEMALGGPITKESQPTIEEDLTRVYKAISAQADKQDISSSTRVEFEKLYSDLMKFLESSKEIDPSQTTQLAGMDVEDALDKDSTKEVASLPNKSTISKTVSSTIPRETIPFLHLRKKTPAGDWKYDRQLSSLFLDGLEKAAFNGVTFKDKYVLITGAGKGSIGAEVLQGLLQGGAKVVVTTSRFSKQVTDYYQSIYAKYGAKGSTLIVVPFNQGSKQDVEALIEFIYDTEKNGGLGWDLDAIIPFAAIPEQGIELEHIDSKSEFAHRIMLTNILRMMGCVKKQKSARGIETRPAQVILPMSPNHGTFGGDGMYSESKLSLETLFNRWHSESWANQLTVCGAIIGWTRGTGLMSANNIIAEGIEKMGVRTFSQKEMAFNLLGLLTPEVVELCQKSPVMADLNGGLQFVPELKEFTAKLRKELVETSEVRKAVSIETALEHKVVNGNSADAAYAQVEIQPRANIQLDFPELKPYKQVKQIAPAELEGLLDLERVIVVTGFAEVGPWGSARTRWEMEAFGEFSLEGCVEMAWIMGFISYHNGNLKGRPYTGWVDSKTKEPVDDKDVKAKYETSILEHSGIRLIEPELFNGYNPEKKEMIQEVIVEEDLEPFEASKETAEQFKHQHGDKVDIFEIPETGEYSVKLLKGATLYIPKALRFDRLVAGQIPTGWNAKTYGISDDIISQVDPITLFVLVSVVEAFIASGITDPYEMYKYVHVSEVGNCSGSGMGGVSALRGMFKDRFKDEPVQNDILQESFINTMSAWVNMLLISSSGPIKTPVGACATSVESVDIGVETILSGKARICIVGGYDDFQEEGSFEFGNMKATSNTLEEFEHGRTPAEMSRPATTTRNGFMEAQGAGIQIIMQADLALKMGVPIYGIVAMAATATDKIGRSVPAPGKGILTTAREHHSSVKYASPNLNMKYRKRQLVTREAQIKDWVENELEALKLEAEEIPSEDQNEFLLERTREIHNEAESQLRAAQQQWGNDFYKRDPRIAPLRGALATYGLTIDDLGVASFHGTSTKANDKNESATINEMMKHLGRSEGNPVIGVFQKFLTGHPKGAAGAWMMNGALQILNSGIIPGNRNADNVDKILEQFEYVLYPSKTLKTDGVRAVSITSFGFGQKGGQAIVVHPDYLYGAITEDRYNEYVAKVSAREKSAYKFFHNGMIYNKLFVSKEHAPYTDELEEDVYLDPLARVSKDKKSGSLTFNSKNIQSKDSYINANTIETAKMIENMTKEKVSNGGVGVDVELITSINVENDTFIERNFTPQEIEYCSAQPSVQSSFAGTWSAKEAVFKSLGVKSLGGGAALKDIEIVRVNKNAPAVELHGNAKKAAEEAGVTDVKVSISHDDLQAVAVAVSTKK
notes: Fatty acid synthase subunit alpha (FAS2 gene product), S. cerevisiae strain BJ2168, gene amplified from genomic DNA into NcoI-digested pET-15b(+); holds the ACP domain (residues 140-302), KR and KS domains; Serine 180 of the ACP domain is called the phosphopantetheine attachment site; No tag is named for FAS2; also called JWL03; holds the ACP domain; source: E. coli BL21, co-expressed with …
Turning to B1, the binding result was “binds”.
